Consider four molecules from patent US20090274696A1, “METHODS FOR TREATING INFLAMMATION” (WYETH, priority 2008, published 2009).

Assay [1] concerns tracheal smooth muscle (TSM) of mouse tracheal rings. The assay is described as follows: ISO-induced relaxation of CCh-contracted tracheal rings. Format: cell-based. The settings on record: in either presence or absence of rFIZZ1. As for the experimental part:
(§1) Experimental animals were sacrificed by CO2 asphyxiation. Tracheas were surgically excised and cleaned of adherent connective tissue. Each trachea was sectioned into rings 3-4 mm in length and cultured in DMEM containing 1.0 M HEPES, 1.0 M NaOH, 5% of heat-inactivated FBS (Hy-Clone, Logan, Utah), 0.2M glutamine, 1.0 M CaCl2, 2.5 μg/ml fungizone, 5 μg/mL insulin, 100 U/mL penicillin and 100 μg/mL streptomycin) (DMEM-5%) for 24 hours. For in vitro experiments, the tracheal rings were cultured in DMEM in the absence and presence of either 10 or 100 nM recombinant FIZZ1 (Leinco Technologies, USA) for 24 hours.
(§2) Trachea were supported longitudinally by a plexiglas rod with a stainless steel pin into the base of a double-jacketed, glass organ bath filled with 10 mL of Krebs-Henseleit (K-H) solution (37° C.) of the following composition: 118 mM NaCl; 4.7 mM KCl; 1.2 mM KH2PO4; 11.1 mM Dextrose; 1.2 mM MgSO4; 2.8 mM CaCl2; and 25 mM NaHCO3. The solution was maintained at a pH of 7.40-7.45 and continuously gassed with a mixture of 5% CO2 and […] for the duration of each experiment. […] Initial tensions of TSM were set at approximately 0.5 g and maintained for 1 hour. Agonists were given after a steady state of tension had been reached.
[CCh]-response curves at the doses ranging from 3×10^−8 to 10^−5 M were completed in tracheal rings in absence and presence of either FIZZ1 or LPS (0.1 ng/mL). Concentrations of agonist were increased only when force responses to the previous concentration had stabilized. To examine TSM relaxant responses to isoprenaline (ISO), tracheal rings were first contracted by an addition of 1.0 μM CCh (Sigma, USA). Once the contraction had stabilized, ISO (Sigma, USA) was introduced into each bath at increasing concentrations (3×10^−8-10^−5 M). […]
(§3) At the end of each force measurement experiment, tracheas were blotted on a gauze pad and weighted. Results were calculated as milligram of tension per milligram of TSM weight (mg/mg) and expressed as an individual percentage (%) of 10 μM CCh- or 200 μM papaverine-induced tension response in PBS-treated trachea. […]

The test system is the same in assay [2]. Kind of assay: CCh-evoked force generation in cultured tracheal rings. It is filed as cell-based. Particulars: FIG. 4B, 100 nM heat-inactivated or native rFIZZ1, 0.1 ng/mL LPS, PBS 100±4.82, n=6. As for the experimental part:
as §1, §2
[CCh]-response curves at the doses ranging from 3×10^−8 to 10^−5 M were completed in tracheal rings in absence and presence of either FIZZ1 or LPS (0.1 ng/mL). Concentrations of agonist were increased only when force responses to the previous concentration had stabilized. To examine TSM relaxant responses to isoprenaline (ISO), tracheal rings were first contracted by an addition of 1.0 μM CCh (Sigma, USA). Once the contraction had stabilized, ISO (Sigma, USA) was introduced into each bath at increasing concentrations (3×10^−8-10^−5 M). […] In an additional experiment, the effect of FIZZ1 protein on the CCh-mediated force response was verified using 100 nM heat-inactivated FIZZ1 (natural and recombinant FIZZ1 solution heated at 70° C. for 60 min). Their dose-response curves were obtained as above. Fresh drug solutions such as CCh and ISO were made up on the day of the experiment. Doses of the above agents refer to the final bath concentration.
(§4) At the end of each force measurement experiment, tracheas were blotted on a gauze pad and weighted. Results were calculated as milligram of tension per milligram of TSM weight (mg/mg) and expressed as an individual percentage (%) of 10 μM CCh- or 200 μM papaverine-induced tension response in PBS-treated trachea. For the control group, CCh (papaverine)-mediated responses were normalized to the mean value of the maximal responses.

In assay [3] the test system is TSM of fresh tracheal rings. The assay is described as follows: Force response of fresh tracheas from intranasally challenged mice. Format: in vivo, mouse. The settings on record: intranasal once a day×5 days, 100 nM rFIZZ1 or 0.1 ng/ml LPS; 24 hours after last treatment; PBS 100.00±14.63; N=5. As for the experimental part: (§5) For some experiments, ex vivo TSM tensions of fresh tracheal rings and BAL cell counts were measured at 24 hours after the last treatment of mice receiving an intranasal dose of either PBS, 0.1 ng/m: LPS or 100 nM rFIZZ1 (once a day×5 days).
as §2, §4

Assay [4] deals with BAL cells. The assay is described as follows: Counts of BAL cells in intranasally challenged mice. Format: in vivo, mouse. The settings on record: intranasal once a day×5 days, 100 nM rFIZZ1 or 0.1 ng/ml LPS; vs PBS-treated mice. On the procedure:
as §5
(§6) PBS- and OA-treated mice were sacrificed and their airways lavaged once with 1.0 mL of PBS via tracheal cannulation. An equal volume of BAL from each mouse was collected and centrifuged (1200 rpm, 5 min). Total BAL cells were counted using a hemocytometer. BAL cells ([…]) collected from each sample were applied to a glass slide using a cytospin (800 rpm, 8 min) and then the slide was stained with Hema 3 Stain Set (Fisher Scientific) for the differential count of cells. The relative proportion of different cells counted from 300 cells/slide was factored to the number of total BAL cells collected in each group.

Assay [5] deals with airway epithelium of cultured trachea. The assay is described as follows: Histological examination of tracheal rings and airway epithelium. The settings on record: cultured overnight with FIZZ1 100 nM or LPS 0.1 ng/mL. It is filed as cell-based, mouse. As for the experimental part:
Histological examination of the structure of the airway and the status of the airway epithelial layer was performed in whole/sectional fresh trachea and as well as trachea cultured overnight with and without 100 nM FIZZ1. To understand the role of airway epithelium in regulating contractility of TSM, we measured the contractile response of tracheal rings after the epithelium was mechanically removed. Briefly, airway epithelial cells were removed by gently rubbing the intraluminal surface with polyethylene tubing (Becton Dickinson & Company, MD USA) connected to a Precision Glide needle (30G1/2) followed by perfusion with 1.0 ml air bubbles and then 1.0 ml K-H solution (re). All of the experimental tracheas were stained with H & E solution (CAT hematoxylin, Edgar Degas Eosin Working Solution, Biocare Medical, Concord, Calif.) and photographed under a light microscope at ×4.0 and ×20 magnification. Tracheal morphometric analysis was performed using a computer-based image analysis system consisting of a Nikon Eclipse E800 microscope (Melville, N.Y. USA) with a SPOT RT Slider camera (Diagnostic Instruments, Inc., Sterling Heights, Mich. USA).

In assay [6] the test system is mouse tracheal epithelium cells (MTEC). The assay is described as follows: Nitrite in MTEC supernatants, Griess reaction. The settings on record: PBS, 0.1 ng/mL LPS or 100 nM rFIZZ1; any measured time point; N=3. Format: cell-based. On the procedure:
MTEC culture was performed by following the protocol of You et al. (“Growth and differentiation of mouse tracheal epithelial cells: selection of a proliferative population,” Am J Physiol Lung Cell Mol Physiol, 2002, 283:L 1315-1321) with minor modification. Briefly, tracheas were incubated in 1.5 mg/mL pronase (Roche Molecular Biochemicals) for 18 h at 4° C. Cells were treated with 0.5 mg/mL crude pancreatic DNase I (Sigma-Aldrich) on ice for 5 min. After incubation in tissue culture plates for 3-4 h in 5% CO2 at 37° C., nonadherent cells were incubated in a plate coated with type I rat tail collagen (BD Biosciences) in modified BEBM (Lonza, Md. USA) containing 10 μg/ml insulin, 5 μg/ml transferrin, 25 ng/ml epidermal growth factor, 5 μg/ml epinephrine and 30 μg/ml bovine pituitary extract, 0.5 nM Hydrocortisone, 25 ng/ml hEGF, 15 nM Triiodothyronine, 0.25 μg/ml Gentamicin/amphotericin-B and 0.01 μM retinoic acid in 5% CO2 at 37° C. […]
Nitric oxide (NO) was examined by measuring an end product, nitrite, using the Griess reaction (Xu et al., “Arginase and autoimmune inflammation in the central nervous system,” Immunology, 2003; 110:141-148). […] Absorbance was read at 540 nm in an automated microplate reader. […]
For orientation: Griess reagent forms a coloured azo dye with nitrite.

Another assay concerns TSM of tracheal rings. Kind of assay: TSM contractile response to CCh in OA-treated mouse model. It is filed as in vivo. Particulars: PBS/PBS 100±6.77, n=6. As for the experimental part: (§7) Animals were divided into three groups including phosphate buffered saline (PBS)-sensitized and -challenged (PBS/PBS), OA-sensitized and PBS-challenged (OA/PBS), and OA-sensitized and -challenged mice (OA/OA). Mice were intraperitoneally injected with an equivalent volume (100 μL) of PBS or OA (20 μg) with 2.25 mg Al(OH)3 in PBS on day 0 and 14. From day 25 to 34, mice were challenged with an aerosol of PBS or OA (5% in PBS) for 30 min once a day for 10 consecutive days.
Experimental animals were sacrificed by CO2 asphyxiation. Tracheas were surgically excised and cleaned of adherent connective tissue. Each trachea was sectioned into rings 3-4 mm in length and cultured in DMEM containing 1.0 M HEPES, 1.0 M NaOH, 5% of heat-inactivated FBS (Hy-Clone, Logan, Utah), 0.2M glutamine, 1.0 M CaCl2, 2.5 μg/ml fungizone, 5 μg/mL insulin, 100 U/mL penicillin and 100 μg/mL streptomycin) (DMEM-5%) for 24 hours. For in vitro experiments, the tracheal rings were cultured in DMEM in the absence and presence of either 10 or 100 nM recombinant FIZZ1 (Leinco Technologies, USA) for 24 hours. […]
as §3

Assay [7] relates to BAL cells. The assay is described as follows: BAL cellular composition in OA-treated mouse model. Format: in vivo. The settings on record: OA/OA-treated mice vs PBS/PBS and OA/PBS; n=6. As for the experimental part:
as §7, §6

A further assay has as its system FIZZ1 mRNA. Kind of assay: FIZZ1 mRNA expression in trachea by transcriptional profiling. It is filed as in vivo, mouse. Particulars: OA/OA-treated mice over PBS/PBS- or OA/PBS-treated mice. On the procedure: as §7
Three (3) groups of mice were analyzed using PBS/PBS, OA/PBS and OA/OA, with 18 animals per group. Tracheal rings from 6 animals per group were combined as replicates, to produce total RNA. […] RNA was quantified using the Nanoprop ND-1000 spectrophotometer. […] The Ovation kit utilizes the Ribo-SPIA process to linearly amplify and label, limiting amounts mRNA in a three-step process resulting in microgram quantities (Kum et al, “Novel Isothermal, Linear Nucleic Acid Amplification Systems for Highly Multiplexed Applications,” Clinical Chemistry, 2005; 51:1973-1981). Approximately 1.5 μg of purified and fragmented biotinylated cRNA, together with controls for quantitating the amount of each transcript, was hybridized to the mouse gene chip array, MOE 430—2.0 (Affymetrix) for 16-18 hours. […] Resulting signals were normalized and quantified using Gene Logic's MAS 5.0 software.

The subject of a further assay is FIZZ1 protein. The assay is described as follows: FIZZ1 protein in BAL by Western blot. The settings on record: OA/OA-treated mice. It is filed as in vivo, mouse. On the procedure:
as §7
Protein expression levels of were examined using Western blot analysis. Briefly, aliquots (100 μg/well) of BAL supernatant and tracheal lysate were loaded onto 4-20% SDS-PAGE gel in an equal volume. Size-fractionated proteins were transferred to nitrocellulose membrane and then blocked with 5% nonfat dried milk in TBS at room temperature for 60 min. […] Immunoreactive bands were detected by chemiluminesence. Protein expression levels were evaluated in relative to expression of β-actin in the same tissue. Quantification of Western blots for phosphorylated signaling proteins was performed using ImageJ and relative band intensity was calculated as % of the intensity of the β-actin protein band.

In the case of `CC(C)NCC(O)c1ccc(O)c(O)c1` (centres unmarked) [ISO, isoprenaline, reference compound], the “TSM relaxation, level relative to the relaxation by papaverine” value in [1] stood at 50%.

“lipopolysaccharide [LPS, reference compound]”: the “maximal responses (%) of the tracheal rings, CCh-evoked” value in [2] is reported as 96.40±4.31%. Also, the “Maximal tensions (%) of TSM, CCh-evoked, fresh trachea” value in assay [3] is 108.28±5.44%. Further, the “number of BAL cells” value in the assay on BAL cells [4] is “obvious increase”. Further, the “smooth muscle layers, histology” value in assay [5] is “clear and histologically intact”. Further, in assay [6], the “changes in nitrite concentration in MTEC supernatants” value is “not obvious”.

B1: ovalbumin (protein, UniProt P01012 2-386, looked up)
Ovalbumin: GSIGAASMEFCFDVFKELKVHHANENIFYCPIAIMSALAMVYLGAKDSTRTQINKVVRFDKLPGFGDSIEAQCGTSVNVHSSLRDILNQITKPNDVYSFSLASRLYAEERYPILPEYLQCVKELYRGGLEPINFQTAADQARELINSWVESQTNGIIRNVLQPSSVDSQTAMVLVNAIVFKGLWEKAFKDEDTQAMPFRVTEQESKPVQMMYQIGLFRVASMASEKMKILELPFASGTMSMLVLLPDEVSGLEQLESIINFEKLTEWTSSNVMEERKIKVYLPRMKMEEKYNLTSVLMAMGITDVFSSSANLSGISSAESLKISQAVHAAHAEINEAGREVVGSAEAGVDAASVSEEFRADHPFLFCIKHIATNAVLFFGRCVSP
notes: allergen used to sensitize and challenge mice (OA/OA, OA/PBS groups)
Consider B1, for which the “contractile forces (%) of TSM to CCh” value in the assay on TSM of tracheal rings (OA/OA: OA-sensitized and -challenged mice) is 127.75±3.54%. In addition, the “contractile forces (%) of TSM to CCh” value with TSM of tracheal rings (OA/PBS: OA-sensitized and PBS-challenged mice) is 105.21±2.71%. In the assay on BAL cells [7], the “number of lymphocytes and eosinophils in the BAL” value is listed as “markedly increased”; the “number of total BAL cells” value is recorded as “large increase”. For the same molecule, the “Fc in FIZZ1 mRNA expression in trachea” value with FIZZ1 mRNA is reported as 1000 fold. Also, the “FIZZ1 protein in the BAL” value in the assay with FIZZ1 protein is “easily detected”.

B2: heat inactivated rFIZZ1: FIZZ1 solution heated at 70° C. for 60 min (protein, UniProt Q9EP95 24-111, looked up)
Resistin-like alpha: DETIEIIVENKVKELLANPANYPSTVTKTLSCTSVKTMNRWASCPAGMTATGCACGFACGSWEIQSGDTCNCLCLLVDWTTARCCQLS
modifications: heat inactivated
notes: FIZZ1 solution heated at 70° C. for 60 min
Regarding B2, the “maximal responses (%) of the tracheal rings, CCh-evoked” value in assay [2] is 100.00±4.77%; in [2] (listed as Heat-inactivated FIZZ1), “no observable effect”.
